System: KDM4A-I71AzF
Assay: CASI: photo-crosslinking with HEK293T cell extracts, StrepTactin enrichment and LC-MS/MS proteomics;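 note: lysates from HEK293T cells pretreated with a KDM4 inhibitor to raise proteome methylation, affinity-purified after ±UV, gel-resolved, trypsin-digested, with exclusive unique peptides per protein averaged per condition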
Assay type: binding, human
Settings: sheet "Final results but with 0.01"

| Molecule | Fold change (+UV/-UV) |
| --- | --- |
| SEPT9_HUMAN (protein, UniProt Q9UHD8 1-586, looked up) Septin-9: MKKSYSGGTRTSSGRLRRLGDSSGPALKRSFEVEEVETPNSTPPRRVQTPLLRATVASSTQKFQDLGVKNSEPSARHVDSLSQRSPKASLRRVELSGPKAAEPVSRRTELSIDISSKQVENAGAIGPSRFGLKRAEVLGHKTPEPAPRRTEITIVKPQESAHRRMEPPASKVPEVPTAPATDAAPKRVEIQMPKPAEAPTAPSPAQTLENSEPAPVSQLQSRLEPKPQPPVAEATPRSQEATEAAPSCVGDMADTPRDAGLKQAPASRNEKAPVDFGYVGIDSILEQMRRKAMKQGFEFNIMVVGQSGLGKSTLINTLFKSKISRKSVQPTSEERIPKTIEIKSITHDIEEKGVRMKLTVIDTPGFGDHINNENCWQPIMKFINDQYEKYLQEEVNINRKKRIPDTRVHCCLYFIPATGHSLRPLDIEFMKRLSKVVNIVPVIAKADTLTLEERVHFKQRITADLLSNGIDVYPQKEFDEDSEDRLVNEKFREMIPFAVVGSDHEYQVNGKRILGRKTKWGTIEVENTTHCEFAYLRDLLIRTHMQNIKDITSSIHFEAYRVKRLNEGSSAMANGMEEKEPEAPEM | 0.6667 |
| FUBP2_HUMAN (protein, UniProt Q92945 2-711, looked up) Far upstream element-binding …: SDYSTGGPPPGPPPPAGGGGGAGGAGGGPPPGPPGAGDRGGGGPGGGGPGGGSAGGPSQPPGGGGPGIRKDAFADAVQRARQIAAKIGGDAATTVNNSTPDFGFGGQKRQLEDGDQPESKKLASQGDSISSQLGPIHPPPRTSMTEEYRVPDGMVGLIIGRGGEQINKIQQDSGCKVQISPDSGGLPERSVSLTGAPESVQKAKMMLDDIVSRGRGGPPGQFHDNANGGQNGTVQEIMIPAGKAGLVIGKGGETIKQLQERAGVKMILIQDGSQNTNVDKPLRIIGDPYKVQQACEMVMDILRERDQGGFGDRNEYGSRIGGGIDVPVPRHSVGVVIGRSGEMIKKIQNDAGVRIQFKQDDGTGPEKIAHIMGPPDRCEHAARIINDLLQSLRSGPPGPPGGPGMPPGGRGRGRGQGNWGPPGGEMTFSIPTHKCGLVIGRGGENVKAINQQTGAFVEISRQLPPNGDPNFKLFIIRGSPQQIDHAKQLIEEKIEGPLCPVGPGPGGPGPAGPMGPFNPGPFNQGPPGAPPHAGGPPPHQYPPQGWGNTYPQWQPPAPHDPSKAAAAAADPNAAWAAYYSHYYQQPPGPVPGPAPAPAAPPAQGEPPQPPPTGQSDYTKAWEEYYKKIGQQPQQPGAPPQQDYTKAWEEYYKKQAQVATGGGPGAPPGSQPDYSAAWAEYYRQQAAYYGQTPGPGGPQPPPTQQGQQQAQ | 1.125 |
| TF3C4_HUMAN (protein, UniProt Q9UKN8 1-822, looked up) General transcription factor …: MNTADQARVGPADDGPAPSGEEEGEGGGEAGGKEPAADAAPGPSAAFRLMVTRREPAVKLQYAVSGLEPLAWSEDHRVSVSTARSIAVLELICDVHNPGQDLVIHRTSVPAPLNSCLLKVGSKTEVAECKEKFAASKDPTVSQTFMLDRVFNPEGKALPPMRGFKYTSWSPMGCDANGRCLLAALTMDNRLTIQANLNRLQWVQLVDLTEIYGERLYETSYRLSKNEAPEGNLGDFAEFQRRHSMQTPVRMEWSGICTTQQVKHNNECRDVGSVLLAVLFENGNIAVWQFQLPFVGKESISSCNTIESGITSPSVLFWWEYEHNNRKMSGLIVGSAFGPIKILPVNLKAVKGYFTLRQPVILWKEMDQLPVHSIKCVPLYHPYQKCSCSLVVAARGSYVFWCLLLISKAGLNVHNSHVTGLHSLPIVSMTADKQNGTVYTCSSDGKVRQLIPIFTDVALKFEHQLIKLSDVFGSVRTHGIAVSPCGAYLAIITTEGMINGLHPVNKNYQVQFVTLKTFEEAAAQLLESSVQNLFKQVDLIDLVRWKILKDKHIPQFLQEALEKKIESSGVTYFWRFKLFLLRILYQSMQKTPSEALWKPTHEDSKILLVDSPGMGNADDEQQEEGTSSKQVVKQGLQERSKEGDVEEPTDDSLPTTGDAGGREPMEEKLLEIQGKIEAVEMHLTREHMKRVLGEVYLHTWITENTSIPTRGLCNFLMSDEEYDDRTARVLIGHISKKMNKQTFPEHCSLCKEILPFTDRKQAVCSNGHIWLRCFLTYQSCQSLIYRRCLLHDSIARHPAPEDPDWIKRLLQSPCPFCDSPVF | 0.6667 |
| SF01_HUMAN (protein, UniProt Q15637 2-639, looked up) Splicing factor 1: ATGANATPLDFPSKKRKRSRWNQDTMEQKTVIPGMPTVIPPGLTREQERAYIVQLQIEDLTRKLRTGDLGIPPNPEDRSPSPEPIYNSEGKRLNTREFRTRKKLEEERHNLITEMVALNPDFKPPADYKPPATRVSDKVMIPQDEYPEINFVGLLIGPRGNTLKNIEKECNAKIMIRGKGSVKEGKVGRKDGQMLPGEDEPLHALVTANTMENVKKAVEQIRNILKQGIETPEDQNDLRKMQLRELARLNGTLREDDNRILRPWQSSETRSITNTTVCTKCGGAGHIASDCKFQRPGDPQSAQDKARMDKEYLSLMAELGEAPVPASVGSTSGPATTPLASAPRPAAPANNPPPPSLMSTTQSRPPWMNSGPSESRPYHGMHGGGPGGPGGGPHSFPHPLPSLTGGHGGHPMQHNPNGPPPPWMQPPPPPMNQGPHPPGHHGPPPMDQYLGSTPVGSGVYRLHQGKGMMPPPPMGMMPPPPPPPSGQPPPPPSGPLPPWQQQQQQPPPPPPPSSSMASSTPLPWQQNTTTTTTSAGTGSIPPWQQQQAAAAASPGAPQMQGNPTMVPLPPGVQPPLPPGAPPPPPPPPPGSAGMMYAPPPPPPPPMDPSNFVTMMGMGVAGMPPFGMPPAPPPPPPQN | 0.9 |
| MCM4_HUMAN (protein, UniProt P33991 2-863, looked up) DNA replication licensing …: SSPASTPSRRGSRRGRATPAQTPRSEDARSSPSQRRRGEDSTSTGELQPMPTSPGVDLQSPAAQDVLFSSPPQMHSSAIPLDFDVSSPLTYGTPSSRVEGTPRSGVRGTPVRQRPDLGSAQKGLQVDLQSDGAAAEDIVASEQSLGQKLVIWGTDVNVAACKENFQRFLQRFIDPLAKEEENVGIDITEPLYMQRLGEINVIGEPFLNVNCEHIKSFDKNLYRQLISYPQEVIPTFDMAVNEIFFDRYPDSILEHQIQVRPFNALKTKNMRNLNPEDIDQLITISGMVIRTSQLIPEMQEAFFQCQVCAHTTRVEMDRGRIAEPSVCGRCHTTHSMALIHNRSLFSDKQMIKLQESPEDMPAGQTPHTVILFAHNDLVDKVQPGDRVNVTGIYRAVPIRVNPRVSNVKSVYKTHIDVIHYRKTDAKRLHGLDEEAEQKLFSEKRVELLKELSRKPDIYERLASALAPSIYEHEDIKKGILLQLFGGTRKDFSHTGRGKFRAEINILLCGDPGTSKSQLLQYVYNLVPRGQYTSGKGSSAVGLTAYVMKDPETRQLVLQTGALVLSDNGICCIDEFDKMNESTRSVLHEVMEQQTLSIAKAGIICQLNARTSVLAAANPIESQWNPKKTTIENIQLPHTLLSRFDLIFLLLDPQDEAYDRRLAHHLVALYYQSEEQAEEELLDMAVLKDYIAYAHSTIMPRLSEEASQALIEAYVDMRKIGSSRGMVSAYPRQLESLIRLAEAHAKVRLSNKVEAIDVEEAKRLHREALKQSATDPRTGIVDISILTTGMSATSRKRKEELAEALKKLILSKGKTPALKYQQLFEDIRGQSDIAITKDMFEEALRALADDDFLTVTGKTVRLL | 0.5 |
| PLOD3_HUMAN (protein, UniProt O60568 25-738, looked up) Multifunctional procollagen …: SDRPRGRDPVNPEKLLVITVATAETEGYLRFLRSAEFFNYTVRTLGLGEEWRGGDVARTVGGGQKVRWLKKEMEKYADREDMIIMFVDSYDVILAGSPTELLKKFVQSGSRLLFSAESFCWPEWGLAEQYPEVGTGKRFLNSGGFIGFATTIHQIVRQWKYKDDDDDQLFYTRLYLDPGLREKLSLNLDHKSRIFQNLNGALDEVVLKFDRNRVRIRNVAYDTLPIVVHGNGPTKLQLNYLGNYVPNGWTPEGGCGFCNQDRRTLPGGQPPPRVFLAVFVEQPTPFLPRFLQRLLLLDYPPDRVTLFLHNNEVFHEPHIADSWPQLQDHFSAVKLVGPEEALSPGEARDMAMDLCRQDPECEFYFSLDADAVLTNLQTLRILIEENRKVIAPMLSRHGKLWSNFWGALSPDEYYARSEDYVELVQRKRVGVWNVPYISQAYVIRGDTLRMELPQRDVFSGSDTDPDMAFCKSFRDKGIFLHLSNQHEFGRLLATSRYDTEHLHPDLWQIFDNPVDWKEQYIHENYSRALEGEGIVEQPCPDVYWFPLLSEQMCDELVAEMEHYGQWSGGRHEDSRLAGGYENVPTVDIHMKQVGYEDQWLQLLRTYVGPMTESLFPGYHTKARAVMNFVVRYRPDEQPSLRPHHDSSTFTLNVALNHKGLDYEGGGCRFLRYDCVISSPRKGWALLHPGRLTHYHEGLPTTWGTRYIMVSFVDP | 0 |
| CMTR1_HUMAN (protein, UniProt Q8N1G2 1-835, looked up) Cap-specific mRNA …: MKRRTDPECTAPIKKQKKRVAELALSLSSTSDDEPPSSVSHGAKASTTSLSGSDSETEGKQHSSDSFDDAFKADSLVEGTSSRYSMYNSVSQKLMAKMGFREGEGLGKYSQGRKDIVEASSQKGRRGLGLTLRGFDQELNVDWRDEPEPSACEQVSWFPECTTEIPDTQEMSDWMVVGKRKMIIEDETEFCGEELLHSVLQCKSVFDVLDGEEMRRARTRANPYEMIRGVFFLNRAAMKMANMDFVFDRMFTNPRDSYGKPLVKDREAELLYFADVCAGPGGFSEYVLWRKKWHAKGFGMTLKGPNDFKLEDFYSASSELFEPYYGEGGIDGDGDITRPENISAFRNFVLDNTDRKGVHFLMADGGFSVEGQENLQEILSKQLLLCQFLMALSIVRTGGHFICKTFDLFTPFSVGLVYLLYCCFERVCLFKPITSRPANSERYVVCKGLKVGIDDVRDYLFAVNIKLNQLRNTDSDVNLVVPLEVIKGDHEFTDYMIRSNESHCSLQIKALAKIHAFVQDTTLSEPRQAEIRKECLRLWGIPDQARVAPSSSDPKSKFFELIQGTEIDIFSYKPTLLTSKTLEKIRPVFDYRCMVSGSEQKFLIGLGKSQIYTWDGRQSDRWIKLDLKTELPRDTLLSVEIVHELKGEGKAQRKISAIHILDVLVLNGTDVREQHFNQRIQLAEKFVKAVSKPSRPDMNPIRVKEVYRLEEMEKIFVRLEMKIIKGSSGTPKLSYTGRDDRHFVPMGLYIVRTVNEPWTMGFSKSFKKKFFYNKKTKDSTFDLPADSIAPFHICYYGRLFWEWGDGIRVHDSQKPQDQDKLSKEDVLSFIQMHRA | 3 |

Reference: paper PMC10540216, “Activity Guided Azide-methyllysine Photo-trapping for Substrate Profiling of Lysine Demethylases” (Journal of the American Chemical Society, 2023)
